{"source": "paper PMC4571342", "about": "(Molecular Biology of the Cell, 2015)", "biological_target": "the molecule itself", "assay": "AUC"}
{"protein": "C-terminal region (amino acids 104–278) of Lnp1 fused to maltose-binding protein (domain or fragment) FYNNNRLRKLAKLRAIHQKKLEKLKEETHYNATSSIIQRFSSGEDQNDDAMVLLDDELNAKYQELNNLKTELEKFKKESHVKGLKKEDSDAWFDKIISVLAGGNELDSTSSLSPFKKIICPQCHWKSNCYRLASKPIIFICPHCNHKIDEVKEREDAIEAKQPAQPSQSEKEKTK", "values": [{"measurement": "stoichiometry N", "value": 2}]}
